Laboratory results as given in patent US20200247894A1 (Regeneron, published 2020).

T1: D2 domain of human IL2Rγ extracellular domain expressed with a C-terminal myc-myc-hexahistidine tag (human)
T1 construct: also called human IL2Rγ domain 2
T1 chain: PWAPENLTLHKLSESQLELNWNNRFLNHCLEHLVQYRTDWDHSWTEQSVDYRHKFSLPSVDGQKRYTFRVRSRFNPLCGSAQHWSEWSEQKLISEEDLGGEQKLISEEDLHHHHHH

T2: D1 domain of human IL-2Rγ extracellular domain expressed with a C-terminal myc-myc-hexahistidine tag (human)
T2 construct: also called human IL2Rγ domain 1
T2 chain: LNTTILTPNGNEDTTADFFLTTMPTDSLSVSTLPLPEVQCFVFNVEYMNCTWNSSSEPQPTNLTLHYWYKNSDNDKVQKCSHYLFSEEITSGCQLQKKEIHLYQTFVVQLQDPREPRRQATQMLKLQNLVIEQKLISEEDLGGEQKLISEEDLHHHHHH

T3: human IL2Rγ (endogenously expressed on cells) (human, UniProt P31785 23-369)
T3 sequence (looked up): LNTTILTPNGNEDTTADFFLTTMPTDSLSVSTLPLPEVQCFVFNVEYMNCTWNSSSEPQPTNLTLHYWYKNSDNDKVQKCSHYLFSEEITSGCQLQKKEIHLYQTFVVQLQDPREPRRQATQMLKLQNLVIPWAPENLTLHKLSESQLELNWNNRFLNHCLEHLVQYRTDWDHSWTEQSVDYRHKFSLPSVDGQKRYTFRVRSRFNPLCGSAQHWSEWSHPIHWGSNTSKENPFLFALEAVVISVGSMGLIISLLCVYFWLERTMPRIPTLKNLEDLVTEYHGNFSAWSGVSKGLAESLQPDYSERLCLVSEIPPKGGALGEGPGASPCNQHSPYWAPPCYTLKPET


How the values were obtained:
[1] = molecular target: T1, D2 domain of human IL2Rγ extracellular …; assay: SPR, mAb captured on anti-hFc, 37 C
Experimental: (§1) Equilibrium dissociation constants (KD values) for IL-2Rγ binding to purified anti-IL2Rγ monoclonal antibodies were determined using a Biacore 4000 instrument equipped with a real-time surface plasmon resonance biosensor. All binding studies were performed in 10 mM HEPES, 150 mM NaCl, 3 mM EDTA, and 0.05% v/v Surfactant Tween-20, pH 7.4 (HBS-ET) running buffer at 25° C. and 37° C. The Biacore sensor surface was first derivatized by amine coupling with a monoclonal mouse anti-human Fc antibody (GE, # BR-1008-39) to capture anti-IL2Rγ monoclonal antibodies.

[2] = molecular target: T2, D1 domain of human IL-2Rγ extracellular …; assay: SPR, mAb captured on anti-hFc, 37 C
Experimental: as §1
(§2) The dissociation of monoclonal antibody bound IL2Rγ reagents were monitored for 8-10 minutes in HBS-ET running buffer. Kinetic association (kₐ) and dissociation (kd) rate constants were determined by fitting the real-time sensorgrams to a 1:1 binding model using Scrubber 2.0c curve fitting software. Binding dissociation equilibrium constants (KD) and dissociative half-lives (t_{1/2}) were calculated from the kinetic rate constants as: […]

[3] = molecular target: T2, D1 domain of human IL-2Rγ extracellular …; assay: SPR, mAb captured on anti-hFc, 25 C
Experimental: as §1, §2

[4] = molecular target: T1, D2 domain of human IL2Rγ extracellular …; assay: SPR, mAb captured on anti-hFc, 25 C
Experimental: as §1

[5] = molecular target: T3, human IL2Rγ (endogenously expressed on …); assay: cell-based or functional assay

100 nM Ag Bound [1]	100 nM Ag Bound [2]	100 nM Ag Bound [3]	binding result [3]	100 nM Ag Bound [4]	binding result [4]	other results	Binder
7 RU	2 RU	2 RU	no binding (tested: 100 nM)	10 RU	no binding (tested: 100 nM)	–	H4H13541P (antibody, human IgG4 S228P, kappa, V domains shown, human IgG4) VH: EVQLVESGGGVVRPGGSLRLSCAASGFIFDDYDMSWVRQPPGRGLEWVSGIDWFGGTRGYADSMKGRFTISRDNAKNSLYLQMNSLRVEDTAFYYCARGGAIVGAVTPFDYWGQGTLVTVSS VL: DIQMTQSPSSLSASVGNRVTLSCRASQSINTYLSWYQQRPGKAPKLLIYAASSLQSGVPSRFSGSGAGTDFTLTISSLQPEDFATYYCQQSYSAPLTFGGGTKVEIKR
0 RU	1 RU	0 RU	no binding (tested: 100 nM)	-1 RU	–	–	H4H12899P (antibody, human IgG4 S228P, kappa, V domains shown, human IgG4) VH: QVQLVESGGDLVKPGGSLRLSCATSGFTFSDFYMTWIRQAPGKGLEWISYISNSGSIVKYADSVKGRFTISRDNAKNSLYLQMNSLRAEDTAIYYCARFYGDRWGQGTLVTVSS VL: DIQLTQSPSFLSASVGDRVTITCWASQGISTFLAWYQQKPGKAPKLLIYAASTLQSGVPSRFSGSGSGTDFTLTISSLQPEDFATYHCQQLNNYPWTFGQGTKVEIKR
1 RU	2 RU	0 RU	no binding (tested: 100 nM)	-1 RU	–	–	H4H12900P (antibody, human IgG4 S228P, kappa, V domains shown, human IgG4) VH: QVQLVESGGGLVKPGGSLRLSCEASGFTFNDFYMTWIRQAPGKGLEWIAYISKSGDKMRYADSVKGRFSTSRDNAKNSLSLQMNSLRAEDTAVYYCARFYGDIWGQGTLVTVSS VL: DIQLTQSPSFLSASVGDRVTITCWASQDISSFLVWYQQKPGKAPNLLIYAASALQSGVPSRFSGSGSGTEFTLTISSLQPEDFASYYCEQLNNYPWTFGQGTKVEIKR
2 RU	32 RU	51 RU	–	1 RU	no binding (tested: 100 nM)	Kd [2]: 32.9 nM; koff [2]: 0.00442 s⁻¹; kon [2]: 134000 M⁻¹ s⁻¹; t½ [2]: 2.6 min; IC50; IL-7 50 pM; NK92/hIL7R/STAT3-luc [5]: 2.3e-09 M; Max Inhibition (%); IL-2 30 pM; NK92/hIL7R/STAT3-luc [5]: 13%; Max Inhibition (%); IL-4 250 pM; Ramos.2G6.4C10/STAT3-luc [5]: 19%; Max Inhibition (%); IL-7 50 pM; NK92/hIL7R/STAT3-luc [5]: 34%; Kd [3]: 11.8 nM; koff [3]: 0.00196 s⁻¹; kon [3]: 166000 M⁻¹ s⁻¹; t½ [3]: 6 min	H4H12884P (antibody, human IgG4 S228P, kappa, V domains shown, human IgG4) VH: QVQLQESGPGLVKPSQTLSLTCTVSGGSISSGGYYWSWIRQHPGKGLEWIGFIYYSGKTYYNPSLKSRLTISVDTSKSQFSLKLRSVTAADTAVYYCARLGYTNSAGWFDPWGQGTLVTVSS VL: DIQMTQSPSSLSASVGDRVTITCRASQSISSYLNWYQQKPGKAPNLLIYAASSLQSGVPSRFSGSGSGTDFTLTISSLQPEDLATYYCQQSYTTPFTFGPGTKVDIKR
3 RU	4 RU	8 RU	no binding (tested: 100 nM)	5 RU	no binding (tested: 100 nM)	–	H4H13545P2 (antibody, human IgG4 S228P, kappa, V domains shown, human IgG4) VH: QVQLQQSGPGLVKPSQTLSLTCDISGDSVSSNIATWNWIRQSPSRGLEWLGRTYYRSKWYKDYAVSVKSRITINPDTSKNQFSLQVNSVTPEDTAVYYCARMTGPRYYFEYWGQGTLVTVSS VL: not shown
0 RU	-1 RU	1 RU	–	1 RU	no binding (tested: 100 nM)	–	H4H12924P2 (antibody, human IgG4 S228P, kappa, V domains shown, human IgG4) VH: EVQLVESGGGLVQPGRSLRLSCAASGFTLEDYAMHWVRQAPGKGLEWVSGISWNRGSTGYADSVKGRFTISRDNAKNSLYLQMTSLRAEDTALYYCAKGFYSMDVWGQGTTVTVSS VL: not shown
26 RU	0 RU	0 RU	–	35 RU	–	Kd [1]: 11.4 nM; koff [1]: 0.000377 s⁻¹; kon [1]: 33100 M⁻¹ s⁻¹; t½ [1]: 31 min; binding result [2]: no binding (tested: 100 nM); IC50; IL-4 250 pM; Ramos.2G6.4C10/STAT3-luc [5]: > 1e-07 M; IC50; IL-7 50 pM; NK92/hIL7R/STAT3-luc [5]: > 1e-07 M; IC50; IL-9 20 pM; NK92/hIL7R/STAT3-luc [5]: > 1e-07 M; IC50; IL-15 60 pM; NK92/hIL7R/STAT3-luc [5]: > 1e-07 M; Max Inhibition (%); IL-2 30 pM; NK92/hIL7R/STAT3-luc [5]: 27%; Max Inhibition (%); IL-4 250 pM; Ramos.2G6.4C10/STAT3-luc [5]: 92%; Max Inhibition (%); IL-7 50 pM; NK92/hIL7R/STAT3-luc [5]: 81%; Max Inhibition (%); IL-9 20 pM; NK92/hIL7R/STAT3-luc [5]: 84%; Max Inhibition (%); IL-15 60 pM; NK92/hIL7R/STAT3-luc [5]: 64%; Max Inhibition (%); IL-21 5 pM; NK92/hIL7R/STAT3-luc [5]: 18%; Kd [4]: 0.535 nM; koff [4]: 0.000148 s⁻¹; kon [4]: 276000 M⁻¹ s⁻¹; t½ [4]: 78 min	H4H12886P (antibody, human IgG4 S228P, kappa, V domains shown, human IgG4) VH: EVQLVESGGGLVKPGGSLRLSCAASGFTFSTAWMSWVRQSPGRGLEWVGRMKSKTDGGTTFYAAPVKGRFTISRDDSKNTLYLQMNSLKTEDTAVYYCTTGLVPAFYKYYGVDVWGQGTTVTVSS VL: DIQMTQSPSSLSASVGDRITITCQASQDITNYLNWYQQKPGKAPNLLIYDASNLVTGVPSRFSGSGSGTDFTFTILSLQPEDIATYYCQQYDSLLTFGPGTKVDIKR
-1 RU	0 RU	1 RU	no binding (tested: 100 nM)	-1 RU	–	–	H4H12908P (antibody, human IgG4 S228P, kappa, V domains shown, human IgG4) VH: EVQLVESGGRLVQPGGSLRLSCEASGFTFSNYGMTWVRQAPGKGLEWVSVISGSDNRKYYAESVKGRFTISRDNSKNTLYLQMNSLRAEDTAVYYCAKLGYSRSSKDFYYGMDVWGQGTTVTVSS VL: not shown
-1 RU	1 RU	1 RU	–	0 RU	–	binding result [2]: no binding (tested: 100 nM)	H4H12858P (antibody, human IgG4 S228P, kappa, V domains shown, human IgG4; also called REGN9433) VH: EVQLVESGGDLVQPGGSLRLSCTASGFIFRNYAMNWVRQAPGKGLEWLSGILGSNDNTYYVDSVKGRFTISRDNSRNTLYLQMNSLRAEDSAVYYCAKGDAGGFDYWGQGTLVTVSS VL: DVVMTQSPLSLPVILGQPASISCRSSQSLVSSDGNTYLNWFQQRPGQSPRRLIYKVSNRDSGVPDRFSGSGSGTDFTLKISRVEAEDVGAYYCMQGSYWPPTFGQGTKLEIKR
6 RU	2 RU	2 RU	no binding (tested: 100 nM)	6 RU	no binding (tested: 100 nM)	–	H4H13538P (antibody, human IgG4 S228P, kappa, V domains shown, human IgG4) VH: EVQLVESGGGLVQPGGSLGLSCAASGFTFSNYAMSWVRQAPGKGLEWVSAVSGGGGGTYYADSVKGRFTISRDNSKNTVLLQMNSLRAEDTAVYYCARGRTGGLDYWGPGTLVTVSS VL: DVVMTQSPLSLPVIFGQPASISCRSSQSLVDSDGNTYLNWLQQRPGQSPRRLIYEVSNRDSGVPDRFSGSGSGTDFTLTISRVEAEDVGIYYCMQGTRWPPTFGGGTKVEIKR
4 RU	22 RU	24 RU	–	5 RU	no binding (tested: 100 nM)	Kd [2]: 225 nM; koff [2]: 0.0105 s⁻¹; kon [2]: 46400 M⁻¹ s⁻¹; t½ [2]: 1.1 min; Kd [3]: 57.8 nM; koff [3]: 0.00207 s⁻¹; kon [3]: 35800 M⁻¹ s⁻¹; t½ [3]: 6 min	H4H13544P2 (antibody, human IgG4 S228P, kappa, V domains shown, human IgG4) VH: QLQLQESGPGLVKPSETLSLTCTVSGGSISIKNYYWGWIRQPPGKGLEWIGSIYYSGTTYYNPSLKSRVTISVDTSKNQFSLKLSSVTAADTAVYHCARHGYSYGHGWFDPWGQGTLVTVSS VL: not shown
